The values below come from PMC10783527.

In one series the target is BCL11B213-560 (UniProt Q9C0K0 213-560). Nature of the series: EMSA. For orientation: A gel shift assay detects complexes by their altered migration in electrophoresis.
In a further series the target is T1, NTHL1 (UniProt P78549 1-304).
T1 sequence: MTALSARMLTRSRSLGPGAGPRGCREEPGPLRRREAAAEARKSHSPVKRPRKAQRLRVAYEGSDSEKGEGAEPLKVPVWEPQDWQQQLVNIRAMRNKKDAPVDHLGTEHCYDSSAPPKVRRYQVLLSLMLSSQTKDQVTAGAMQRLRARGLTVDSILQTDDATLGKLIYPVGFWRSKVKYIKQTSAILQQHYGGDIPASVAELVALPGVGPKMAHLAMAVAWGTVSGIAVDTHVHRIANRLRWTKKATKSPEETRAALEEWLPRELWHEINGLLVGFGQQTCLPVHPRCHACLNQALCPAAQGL
Nature of the series: EMSA.

Sequence of BCL11B213-560 (Q9C0K0 213-560): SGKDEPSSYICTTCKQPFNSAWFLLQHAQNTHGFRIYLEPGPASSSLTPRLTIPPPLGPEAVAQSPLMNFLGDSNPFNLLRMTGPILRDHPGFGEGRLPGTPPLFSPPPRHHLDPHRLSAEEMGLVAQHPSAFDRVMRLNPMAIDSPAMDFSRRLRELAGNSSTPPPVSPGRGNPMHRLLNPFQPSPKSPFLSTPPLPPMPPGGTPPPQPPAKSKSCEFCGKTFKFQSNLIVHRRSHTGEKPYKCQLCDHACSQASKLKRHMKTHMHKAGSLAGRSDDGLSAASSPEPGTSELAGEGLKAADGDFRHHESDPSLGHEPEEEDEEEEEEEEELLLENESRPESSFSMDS

B1: thymine glycol 32-mer duplex (dsDNA)
DNA 1: CCGGTGCATGACACTGTTACCTATCCTCAGCG
DNA 2: CGCTGAGGATAGGTAACAGTGTCATGCACCGG
modifications: thymine glycol at position 18 of strand 1 (printed X, written T)
On to B1, for which the figures for the binding result with BCL11B213-560 and with NTHL1 were “no binding” and “binds”, respectively.
